Test results: PMC5366330, “The Activity of a Hexameric M17 Metallo-Aminopeptidase Is Associated With Survival of Mycobacterium tuberculosis” (Frontiers in Microbiology, 2017)

Tests used:
[1] = tested on: Cc1cc(=O)oc2cc(NC(=O)[C@@H]3CCCN3)ccc12; test: purified protein; conditions: divalent metal (Ni2+, […] NiSO4 in the assay)
[2] = tested on: CSCC[C@H](N)C(=O)Nc1ccc2c(C)cc(=O)oc2c1; test: purified protein; conditions: divalent metal (Ni2+, […] NiSO4 in the assay)
[3] = tested on: Cc1cc(=O)oc2cc(NC(=O)[C@@H](N)CC(C)C)ccc12; test: purified protein; conditions: divalent metal (Ni2+, […] NiSO4 in the assay)
[4] = biological target: T1, MtLAP (leucine aminopeptidase of M. tuberculosis, Rv2213) (Mycobacterium tuberculosis, UniProt P9WHT3); test: biochemical
T1 construct: gene pepA

AUC + SEC = biological target: the molecule itself; test: AUC + SEC

## MtLAP (leucine aminopeptidase of M. tuberculosis, Rv2213) (Mycobacterium tuberculosis H37Rv)
[1]
  Km: 344.8 ± 49.2 µM
[2]
  Km: 61.8 ± 4.4 µM
[3]
  Km: 69.4 ± 3.6 µM

## CC(C)C[C@H](NC(=O)[C@@H](O)[C@H](N)Cc1ccccc1)C(=O)O [bestatin]
[4]
  IC50: 53.8 nM

B1: leucine aminopeptidase of M. tuberculosis (MtLAP) (enzyme)
chain: MTTEPGYLSPSVAVATSMPKRGVGAAVLIVPVVSTGEEDRPGAVVASAEPFLRADTVAEIEAGLRALDATGASDQVHRLAVPSLPVGSVLTVGLGKPRREWPADTIRCAAGVAARALNSSEAVITTLAELPGDGICSATVEGLILGSYRFSAFRSDKTAPKDAGLRKITVLCCAKDAKKRALHGAAVATAVATARDLVNTPPSHLFPAEFAKRAKTLSESVGLDVEVIDEKALKKAGYGGVIGVGQGSSRPPRLVRLIHRGSRLAKNPQKAKKVALVGKGITFDTGGISIKPAASMHHMTSDMGGAAAVIATVTLAARLRLPIDVIATVPMAENMPSATAQRPGDVLTQYGGTTVEVLNTDAEGRLILADAIVRACEDKPDYLIETSTLTGAQTVALGTRIPGVMGSDEFRDRVAAISQRVGENGWPMPLPDDLKDDLKSTVADLANVSGQRFAGMLVAGVFLREFVAESVDWAHIDVAGPAYNTGSAWGYTPKGATGVPTRTMFAVLEDIAKNG
notes: also called M. tuberculosis LAP; Rv2213
AUC + SEC
  stoichiometry N: 6
